Source: CN101151278A
Each block holds one substance with its values, some of them ahead of it.

Tests used:
人FcRn (human) = 人FcRn (human) (UniProt P55899); assay: BIAcore, FcRn on CM5 chip, pH 6.0
大鼠FcRn (rat) = 大鼠FcRn (rat) (UniProt P13599); assay: BIAcore, FcRn on CM5 chip
[1] = biological target: T1, CD20 on WIL2-S cells (human) (UniProt P11836); assay: cell-based or functional assay
T1 sequence (looked up): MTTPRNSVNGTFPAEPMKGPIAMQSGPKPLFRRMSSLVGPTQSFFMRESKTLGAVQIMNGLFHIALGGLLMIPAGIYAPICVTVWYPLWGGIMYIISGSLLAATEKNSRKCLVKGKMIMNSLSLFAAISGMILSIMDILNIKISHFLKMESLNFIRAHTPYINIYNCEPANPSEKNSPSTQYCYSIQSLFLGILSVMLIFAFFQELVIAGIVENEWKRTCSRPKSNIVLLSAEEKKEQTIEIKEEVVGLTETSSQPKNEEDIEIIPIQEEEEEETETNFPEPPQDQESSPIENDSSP

大鼠FcRn (rat), sequence (P13599 23-298 limits assumed, chain 1 of 2): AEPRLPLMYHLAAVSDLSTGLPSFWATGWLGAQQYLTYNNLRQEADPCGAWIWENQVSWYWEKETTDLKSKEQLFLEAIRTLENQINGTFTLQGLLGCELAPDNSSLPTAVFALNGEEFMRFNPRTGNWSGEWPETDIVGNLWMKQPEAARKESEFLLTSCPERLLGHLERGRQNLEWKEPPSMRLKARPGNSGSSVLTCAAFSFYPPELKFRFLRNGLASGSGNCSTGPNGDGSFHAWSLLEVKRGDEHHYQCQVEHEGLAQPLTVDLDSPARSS
大鼠FcRn (rat), sequence (P07151 21-119 limits assumed, chain 2 of 2, further chain): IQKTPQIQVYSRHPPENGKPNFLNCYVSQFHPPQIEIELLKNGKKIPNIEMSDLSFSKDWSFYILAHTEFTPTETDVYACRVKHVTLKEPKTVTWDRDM

fold increase in affinity vs wild-type Fc (人FcRn (human)): 14 fold
Substance: Fc变体 N434A+E380A+T307A (from UniProt P01857 114-330) (other; other documents disagree on this pair)

fold increase in affinity vs wild-type Fc (人FcRn (human)): 9 fold
Substance: Fc变体 N434F (from UniProt P01857 114-330) (other; other documents disagree on this pair)

fold increase in binding vs wild-type Fc (大鼠FcRn (rat)): 10 fold
Substance: Fc变体 N434W (from UniProt P01857 114-330)

ADCC on WIL2-S cells with NK cells, EC50(变体)/EC50(2H7.v16) [1]: 5.3
ADCC on WIL2-S cells with NK cells, EC50(变体)/EC50(Rituxan) [1]: 1
CDC on WIL2-S cells, EC50(变体)/EC50(Rituxan) [1]: 1
Substance: Rituxan (antibody)
